This note sets out measurements from US20060024308A1.

Assay [1] has as its target human TNF-α (human) (UniProt P01375).
The target is the same in assay [2]. Kind of assay: cell-based or functional assay.

Chain of human TNF-α (human) (P01375 77-233 limits assumed): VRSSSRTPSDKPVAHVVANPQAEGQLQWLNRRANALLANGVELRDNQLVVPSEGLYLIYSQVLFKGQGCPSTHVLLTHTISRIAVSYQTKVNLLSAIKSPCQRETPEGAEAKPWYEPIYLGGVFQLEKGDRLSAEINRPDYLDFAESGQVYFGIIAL

In turn, Humira (IgG1) (antibody) returned an ND50 (L929 cell survival, neutralisation of TNF-α cytotoxicity) in assay [1] of 28 pM. Also, the Average IC50, neutralization of TNF-α cytotoxicity on L929 cells in assay [2] amounted to 23 pM.
